Experimental data as given in article PMC6895276 (Nucleic Acids Research, 2019).

T1: WT MutS (Escherichia coli, UniProt P23909 1-853)
T1 sequence (looked up): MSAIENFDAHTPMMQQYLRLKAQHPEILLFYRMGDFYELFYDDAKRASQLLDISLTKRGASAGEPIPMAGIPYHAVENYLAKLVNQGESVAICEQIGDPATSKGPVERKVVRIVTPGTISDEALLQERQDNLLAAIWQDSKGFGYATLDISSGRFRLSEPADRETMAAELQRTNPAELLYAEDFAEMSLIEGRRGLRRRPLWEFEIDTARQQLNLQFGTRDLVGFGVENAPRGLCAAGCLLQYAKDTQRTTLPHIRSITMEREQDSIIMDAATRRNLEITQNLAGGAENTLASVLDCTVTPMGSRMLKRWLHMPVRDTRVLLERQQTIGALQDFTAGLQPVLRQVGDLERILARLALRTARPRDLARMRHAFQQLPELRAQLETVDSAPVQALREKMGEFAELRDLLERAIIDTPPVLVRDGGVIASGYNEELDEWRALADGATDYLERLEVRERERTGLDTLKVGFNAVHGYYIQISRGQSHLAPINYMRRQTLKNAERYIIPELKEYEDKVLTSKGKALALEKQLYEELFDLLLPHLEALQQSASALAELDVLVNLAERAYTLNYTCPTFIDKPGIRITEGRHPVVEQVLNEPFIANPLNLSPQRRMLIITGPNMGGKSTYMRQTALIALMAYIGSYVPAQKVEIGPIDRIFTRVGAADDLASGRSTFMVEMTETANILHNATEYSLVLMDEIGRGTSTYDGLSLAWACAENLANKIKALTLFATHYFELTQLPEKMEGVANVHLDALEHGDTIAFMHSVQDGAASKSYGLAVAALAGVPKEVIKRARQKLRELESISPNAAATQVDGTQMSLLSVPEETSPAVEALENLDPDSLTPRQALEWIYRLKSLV


What was measured:
Assay in all cases: SPR
[1] = target: MutS STAB3 (Escherichia coli) (UniProt P23909)
[2] = target: MutS STAB1 (Escherichia coli) (UniProt P23909)
[3] = target: MutS STAB2 (Escherichia coli) (UniProt P23909)
[4] = target: MutS STAB4 (Escherichia coli) (UniProt P23909)
[5] = target: T1, WT MutS

| Kd [1] | Kd [2] | Kd [3] | Kd [4] | Kd [5] | Molecule |
| --- | --- | --- | --- | --- | --- |
| 17 nM | 18 nM | 16 nM | 11 nM | – | MutL WT (from UniProt P23367 1-615) (natural protein) |
| – | – | – | – | 15 nM | MutL WT (natural protein, UniProt P23367 1-615, looked up) MPIQVLPPQLANQIAAGEVVERPASVVKELVENSLDAGATRIDIDIERGGAKLIRIRDNGCGIKKDELALALARHATSKIASLDDLEAIISLGFRGEALASISSVSRLTLTSRTAEQQEAWQAYAEGRDMNVTVKPAAHPVGTTLEVLDLFYNTPARRKFLRTEKTEFNHIDEIIRRIALARFDVTINLSHNGKIVRQYRAVPEGGQKERRLGAICGTAFLEQALAIEWQHGDLTLRGWVADPNHTTPALAEIQYCYVNGRMMRDRLINHAIRQACEDKLGADQQPAFVLYLEIDPHQVDVNVHPAKHEVRFHQSRLVHDFIYQGVLSVLQQQLETPLPLDDEPQPAPRSIPENRVAAGRNHFAEPAAREPVAPRYTPAPASGSRPAAPWPNAQPGYQKQQGEVYRQLLQTPAPMQKLKAPEPQEPALAANSQSFGRVLTIVHSDCALLERDGNISLLSLPVAERWLRQAQLTPGEAPVCAQPLLIPLRLKVSAEEKSALEKAQSALAELGIDFQSDAQHVTIRAVPLPLRQQNLQILIPELIGYLAKQSVFEPGNIAQWIARNLMSEHAQWSMAQAITLLADVERLCPQLVKTPPGGLLQSVDLHPAIKALKDE |
